These results are taken from patent publication US20220017611A1.

B1: mCherry-VHH Mut12 (VHH, not shown: large carriers)
VHH: AEVQLQASGGVFVQSGGSLRLCCAASGATSTFDGMGWFRQAPGKEREFVSAISYEQGSYTYYADSVKGRFTISRDNSKNMVYLQMNSLRAEDTATYYCAPAYEGDLYAFDSYGEQGTQVTVSS
B2: mCherry-VHH E4-1 (VHH, not shown: large carriers)
VHH: EVQLQASGGGFVQPGGSLRLSCAASGATSTFDGMGWFRQAPGKEREFVSAISYEQGSYTYYADSVKGRFTISRDNSKNTVYLQMNSLRAEDTATYYCAPAYEGDLYAFDSYWGQGTQVTVSS
B3: mCherry-VHH Mut20 (VHH, not shown: large carriers)
VHH: EVQLQASGGVFVQSGGSLRLSCAASGATSTFDGMGWFRQAPGKEKEFVSAISYEQGSYTYYADSVKGRFTISRDNSKNMVYLQMNSLRAEDTATYYCAPAYEGDLYAFDSYGEQGTQVTVSS
B4: mCherry-VHH Mut14 (VHH, not shown: large carriers)
VHH: EVQLQASGGVFVQSGGSLRLSCAASGATSIFDGMGWFRQAPGKEREFVSAISYGQGSYTYYADSVKGRFTISRDNSKNMVYLQMNSLRAEDTATYYCAPAYEGDLYAFDSYGEQGTQVTVSS
B5: mCherry-VHH Mut3 (VHH, not shown: large carriers)
VHH: EVQLQASGGVFVQSGGSLRLSCAASGATSTFDGMGWFRQAPGKEKEFVSAISYEQGSYTYYADSVKGRFTISRDNSKNMVYLQMNSLRAEDTATYYCAPAYEGDLYAFDSYGGQGTQVTVSS
B6: mCherry-VHH Mut1 (VHH, not shown: large carriers)
VHH: EVQLQASGGVFVQSGGSLRLSCAASGATSTFDGMGWFRQAPGKEREFVSAISYEQGSYTYYADSVKGRFTISRDNSKNMVYLQMNSLRAEDTATYYCAPAYEGDLYAFDSYGEQGTQVTVSS
B7: mCherry-VHH Mut5 (VHH, not shown: large carriers)
VHH: EVQLQASGGVFVQSGGSLRLSCAASGATSTFDGMGWFRQAPGKEREFVSAISYEQGSYTYYADSVKGRFTISRDNSKNMVYLQMNSLRAEDTASYYCAPAYEGDLYAFDSYGGQGTQVTVSS
B8: mCherry-VHH Z70 (VHH, not shown: large carriers)
VHH: EVQLQASGGVFVQSGGSLRLSCAASGATSTFDGMGWFRQAPGKEREFVSAISYEQGSYTYYADSVKGRFTISRDNSKNMVYLQMNSLRAEDTATYYCAPAYEGDLYAFDSYGGQGTQVTVSS

Tau RD (MTBD) P301S fused to CFP or YFP, in HEK293 Tau RD P301S FRET Biosensor cells, sequence (P10636 561-689 P618S): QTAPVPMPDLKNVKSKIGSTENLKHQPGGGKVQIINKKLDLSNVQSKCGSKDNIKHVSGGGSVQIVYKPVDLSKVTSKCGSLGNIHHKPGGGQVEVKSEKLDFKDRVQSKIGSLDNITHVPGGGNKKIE

This assay has as its target Tau RD (MTBD) P301S fused to CFP or YFP, in HEK293 Tau RD P301S FRET Biosensor cells (UniProt P10636). Put plainly: cell-based or functional assay.
Consider B1, for which the mCherry-gated FRET positive cells after MTBD seeds is 8.5% and the seeding inhibition came to 48%.
In turn, B2 yielded a mCherry-gated FRET positive cells after MTBD seeds of 15.2% and a seeding inhibition against mCherry-VHH F8-2 of 7.8%.
The molecule B3 returned a mCherry-gated FRET positive cells after MTBD seeds of 11.2% and a seeding inhibition of 32%.
As for B4, the mCherry-gated FRET positive cells after MTBD seeds was found to be 12.7% and the seeding inhibition is 23%.
B5: the mCherry-gated FRET positive cells after MTBD seeds stood at 8.2% and the seeding inhibition was 50%.
In turn, B6 yielded a mCherry-gated FRET positive cells after MTBD seeds of 8.2% and a seeding inhibition of 50%.
B7 showed a mCherry-gated FRET positive cells after MTBD seeds of 12.1% and a seeding inhibition of 27%.
In the case of B8, the mCherry-gated FRET positive cells after MTBD seeds is 9.9% and the seeding inhibition against mCherry-VHH F8-2 is 40%.
